This note sets out measurements from article PMC3046058 (Molecular Biology of the Cell, 2011).

The target of this experiment is His/S-tagged OCRL1, full length, recombinant (human, UniProt Q01968 1-901). Kind of experiment: pull-down.
His/S-tagged OCRL1, full length, recombinant, sequence (Q01968 whole entry): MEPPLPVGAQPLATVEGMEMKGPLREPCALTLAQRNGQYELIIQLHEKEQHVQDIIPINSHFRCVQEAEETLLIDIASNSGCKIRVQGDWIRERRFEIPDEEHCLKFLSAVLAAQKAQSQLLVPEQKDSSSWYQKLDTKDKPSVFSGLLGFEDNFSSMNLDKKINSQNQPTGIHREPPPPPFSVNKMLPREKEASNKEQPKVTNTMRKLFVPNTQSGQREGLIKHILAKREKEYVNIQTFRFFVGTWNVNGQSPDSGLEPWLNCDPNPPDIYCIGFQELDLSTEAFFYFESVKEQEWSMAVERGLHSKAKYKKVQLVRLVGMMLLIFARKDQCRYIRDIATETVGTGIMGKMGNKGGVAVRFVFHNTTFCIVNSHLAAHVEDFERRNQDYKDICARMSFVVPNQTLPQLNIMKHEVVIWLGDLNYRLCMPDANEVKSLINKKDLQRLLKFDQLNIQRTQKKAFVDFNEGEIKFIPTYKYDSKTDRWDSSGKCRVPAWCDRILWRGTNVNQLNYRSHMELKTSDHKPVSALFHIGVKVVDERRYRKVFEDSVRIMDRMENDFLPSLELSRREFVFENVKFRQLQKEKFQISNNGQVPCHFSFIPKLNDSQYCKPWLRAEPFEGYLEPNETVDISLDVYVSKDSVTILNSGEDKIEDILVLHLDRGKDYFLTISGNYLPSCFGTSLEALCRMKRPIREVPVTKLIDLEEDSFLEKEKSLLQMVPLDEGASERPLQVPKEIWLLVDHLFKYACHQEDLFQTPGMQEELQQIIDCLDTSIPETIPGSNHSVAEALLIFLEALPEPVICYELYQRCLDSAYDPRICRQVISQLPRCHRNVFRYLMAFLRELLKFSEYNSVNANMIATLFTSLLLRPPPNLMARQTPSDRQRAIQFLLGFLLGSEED

For the molecule SFQQRHESLRP [GST APPL1 (aa 403-413), minimal OCRL1 binding domain of APPL1], the binding result is reported as “binds”.
